Laboratory results published in US20240376185A1 (SMIVET B V, published 2024).

Experiments:
[1] = biological target: T1, tetanus neurotoxin (TeNT), authentic tetanus holotoxin (Clostridium tetani, UniProt P04958 2-1315); assay: GT1b-TeNT inhibition ELISA
Target sequence in this assay (P04958 2-457 limits assumed, chain 1 of 2): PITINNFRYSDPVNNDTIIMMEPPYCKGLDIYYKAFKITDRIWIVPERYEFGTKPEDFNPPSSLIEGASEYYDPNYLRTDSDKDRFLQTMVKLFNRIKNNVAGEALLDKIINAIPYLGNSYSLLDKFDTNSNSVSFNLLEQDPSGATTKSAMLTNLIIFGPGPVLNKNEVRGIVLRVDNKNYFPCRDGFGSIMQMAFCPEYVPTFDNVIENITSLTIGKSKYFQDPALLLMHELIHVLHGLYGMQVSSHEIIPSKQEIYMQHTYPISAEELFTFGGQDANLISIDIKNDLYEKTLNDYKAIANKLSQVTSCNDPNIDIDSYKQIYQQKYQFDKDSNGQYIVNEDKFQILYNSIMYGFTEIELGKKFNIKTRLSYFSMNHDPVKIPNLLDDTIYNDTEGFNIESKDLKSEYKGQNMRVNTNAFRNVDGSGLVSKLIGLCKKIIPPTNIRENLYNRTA
Target sequence in this assay (P04958 458-1315 limits assumed, chain 2 of 2): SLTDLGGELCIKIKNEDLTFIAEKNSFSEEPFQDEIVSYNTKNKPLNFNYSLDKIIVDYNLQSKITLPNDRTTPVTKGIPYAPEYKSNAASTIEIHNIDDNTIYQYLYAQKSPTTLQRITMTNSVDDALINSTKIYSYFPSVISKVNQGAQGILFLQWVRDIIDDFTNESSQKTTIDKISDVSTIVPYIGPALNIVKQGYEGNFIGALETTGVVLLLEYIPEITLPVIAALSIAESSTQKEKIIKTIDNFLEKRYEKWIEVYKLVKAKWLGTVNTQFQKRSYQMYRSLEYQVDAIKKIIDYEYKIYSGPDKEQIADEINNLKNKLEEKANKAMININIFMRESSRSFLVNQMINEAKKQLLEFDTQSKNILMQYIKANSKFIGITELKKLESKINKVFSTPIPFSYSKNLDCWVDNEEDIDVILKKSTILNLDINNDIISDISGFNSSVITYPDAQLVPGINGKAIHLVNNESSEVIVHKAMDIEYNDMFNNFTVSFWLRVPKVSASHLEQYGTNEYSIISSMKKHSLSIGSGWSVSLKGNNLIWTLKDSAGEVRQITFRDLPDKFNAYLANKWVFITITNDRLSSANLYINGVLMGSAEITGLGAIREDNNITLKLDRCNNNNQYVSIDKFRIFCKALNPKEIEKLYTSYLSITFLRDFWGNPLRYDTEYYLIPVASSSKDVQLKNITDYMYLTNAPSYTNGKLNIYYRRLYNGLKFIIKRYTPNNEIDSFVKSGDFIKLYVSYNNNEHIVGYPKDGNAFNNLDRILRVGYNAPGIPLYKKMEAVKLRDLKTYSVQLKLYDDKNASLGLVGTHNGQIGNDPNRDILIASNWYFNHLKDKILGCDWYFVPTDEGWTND

[2] = biological target: T1, tetanus neurotoxin (TeNT), authentic …; assay: GT1b-TeNT inhibition ELISA; remark: listed apart in the source
Target sequence in this assay (P04958 2-457 limits assumed, chain 1 of 2): as the sequence (P04958 2-457 limits assumed, chain 1 of 2) above
Target sequence in this assay (P04958 458-1315 limits assumed, chain 2 of 2): as the sequence (P04958 458-1315 limits assumed, chain 2 of 2) above

[3] = biological target: dog IgG (chrompure dog IgG) (dog)
[4] = biological target: T1, tetanus neurotoxin (TeNT), authentic …; assay: ELISA: directly coated TeNT, anti-his6 PO
Target sequence in this assay (P04958 2-457 limits assumed, chain 1 of 2): as the sequence (P04958 2-457 limits assumed, chain 1 of 2) above
Target sequence in this assay (P04958 458-1315 limits assumed, chain 2 of 2): as the sequence (P04958 458-1315 limits assumed, chain 2 of 2) above

[5] = biological target: T1, tetanus neurotoxin (TeNT), authentic …; assay: ELISA: directly coated TeNT, anti-his6 PO; remark: listed apart in the source
[6] = biological target: T1, tetanus neurotoxin (TeNT), authentic …; assay: ELISA: directly coated TeNT, goat anti-llama Ig PO
Target sequence in this assay (P04958 2-457 limits assumed, chain 1 of 2): as the sequence (P04958 2-457 limits assumed, chain 1 of 2) above
Target sequence in this assay (P04958 458-1315 limits assumed, chain 2 of 2): as the sequence (P04958 458-1315 limits assumed, chain 2 of 2) above

[7] = biological target: T1, tetanus neurotoxin (TeNT), authentic …; assay: ELISA: directly coated TeNT, goat anti-llama Ig PO; remark: listed apart in the source
Target sequence in this assay (P04958 2-457 limits assumed, chain 1 of 2): as the sequence (P04958 2-457 limits assumed, chain 1 of 2) above
Target sequence in this assay (P04958 458-1315 limits assumed, chain 2 of 2): as the sequence (P04958 458-1315 limits assumed, chain 2 of 2) above

[8] = biological target: T1, tetanus neurotoxin (TeNT), authentic …; assay: bridging ELISA: coated TeNT, SDA, biotinylated TeNT, StrepPO (bivalent binding)
Target sequence in this assay (P04958 2-457 limits assumed, chain 1 of 2): as the sequence (P04958 2-457 limits assumed, chain 1 of 2) above
Target sequence in this assay (P04958 458-1315 limits assumed, chain 2 of 2): as the sequence (P04958 458-1315 limits assumed, chain 2 of 2) above

[9] = biological target: T1, tetanus neurotoxin (TeNT), authentic …; assay: as above; remark: listed apart in the source
[10] = biological target: T2, tetanus neurotoxin (TeNT), authentic tetanus holotoxin (Clostridium tetani, UniProt P04958 2-1315); assay: GT1b-TeNT inhibition ELISA, EC at A450 0.59
[11] = biological target: T2, tetanus neurotoxin (TeNT), authentic …; assay: GT1b-TeNT inhibition ELISA, unlabelled binder
[12] = biological target: T2, tetanus neurotoxin (TeNT), authentic …; assay: ELISA, directly coated TeNT, unlabelled binder
[13] = biological target: T3, recombinant tetanus toxin fragment C (rTTC) (Clostridium tetani, UniProt P04958 865-1315); assay: ELISA, directly coated rTTC, unlabelled binder
T3 sequence: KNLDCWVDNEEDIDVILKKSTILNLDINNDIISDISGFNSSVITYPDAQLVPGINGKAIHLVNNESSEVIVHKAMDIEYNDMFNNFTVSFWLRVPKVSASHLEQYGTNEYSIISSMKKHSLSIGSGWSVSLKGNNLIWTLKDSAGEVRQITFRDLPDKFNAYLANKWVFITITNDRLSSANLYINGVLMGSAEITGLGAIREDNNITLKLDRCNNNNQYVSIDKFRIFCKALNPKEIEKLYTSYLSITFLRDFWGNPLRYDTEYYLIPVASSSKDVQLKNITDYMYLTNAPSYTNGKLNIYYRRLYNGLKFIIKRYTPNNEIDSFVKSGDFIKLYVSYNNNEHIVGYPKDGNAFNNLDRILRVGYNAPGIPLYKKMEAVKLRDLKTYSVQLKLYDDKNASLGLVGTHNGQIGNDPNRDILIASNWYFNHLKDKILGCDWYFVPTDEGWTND

[14] = biological target: T2, tetanus neurotoxin (TeNT), authentic …; assay: ELISA, directly coated TeNT, biotinylated binder
[15] = biological target: T2, tetanus neurotoxin (TeNT), authentic …; assay: ELISA, TeNT captured with cAb-TT2, unlabelled binder
[16] = biological target: T2, tetanus neurotoxin (TeNT), authentic …; assay: ELISA, TeNT captured with cAb-TT2, biotinylated binder
[17] = biological target: T2, tetanus neurotoxin (TeNT), authentic …; assay: competition ELISA on TeNT, binder biotinylated; competitor SVT02L
[18] = biological target: T2, tetanus neurotoxin (TeNT), authentic …; assay: competition ELISA on TeNT, binder biotinylated; competitor SVT03L
[19] = biological target: T2, tetanus neurotoxin (TeNT), authentic …; assay: competition ELISA on TeNT, binder biotinylated; competitor SVT06L
[20] = biological target: T2, tetanus neurotoxin (TeNT), authentic …; assay: competition ELISA on TeNT, binder biotinylated; competitor SVT08L
[21] = biological target: T2, tetanus neurotoxin (TeNT), authentic …; assay: competition ELISA on TeNT, binder biotinylated; competitor SVT13L
[22] = biological target: T2, tetanus neurotoxin (TeNT), authentic …; assay: competition ELISA on TeNT, binder biotinylated; competitor SVT15L
[23] = biological target: T2, tetanus neurotoxin (TeNT), authentic …; assay: competition ELISA on TeNT, binder biotinylated; competitor SVT16L
[24] = biological target: T2, tetanus neurotoxin (TeNT), authentic …; assay: competition ELISA on TeNT, binder biotinylated; competitor SVT22L
[25] = biological target: T2, tetanus neurotoxin (TeNT), authentic …; assay: competition ELISA on TeNT, binder biotinylated; competitor SVT34L
[26] = biological target: T2, tetanus neurotoxin (TeNT), authentic …; assay: competition ELISA on TeNT, binder biotinylated; competitor mAb 6E7
[27] = biological target: T2, tetanus neurotoxin (TeNT), authentic …; assay: competition ELISA on TeNT, binder biotinylated; competitor mAb 14F5
[28] = biological target: T2, tetanus neurotoxin (TeNT), authentic …; assay: competition ELISA on TeNT, binder biotinylated; competitor mAb 6F57
[29] = biological target: T2, tetanus neurotoxin (TeNT), authentic …; assay: competition ELISA on TeNT, binder biotinylated; competitor mAb 11n185
[30] = biological target: T2, tetanus neurotoxin (TeNT), authentic …; assay: competition ELISA on TeNT, binder biotinylated; competitor SVT15L-3FW4M
[31] = biological target: T1, tetanus neurotoxin (TeNT), authentic …; assay: BLI (Octet Red96): biotinylated SDA on SA sensor, TeNT as analyte
Target sequence in this assay (P04958 2-457 limits assumed): as the sequence (P04958 2-457 limits assumed, chain 1 of 2) above

[32] = biological target: Tetanus neurotoxin (TeNT), authentic tetanus holotoxin (Clostridium tetani, UniProt P04958 2-1315)
Tetanus neurotoxin (TeNT), authentic tetanus holotoxin, sequence (P04958 2-457 limits assumed): as the sequence (P04958 2-457 limits assumed, chain 1 of 2) above

B1: SVG13L (VHH)
VHH: QVQLQESGGGLVQPGGSLRLSCEASGFTFDDYGMSWVRQAPGKGLEWVSSLTPNGGSTYYADSVKGRFTISRDNAKNTLYLQMNSLKPEDTALYYCAKNSYYGAMDYWGKGTLVTVSS
[1]
  minimal absorbance value (GT1b-TeNT inhibition): 0.72 A450
[2]
  Effective SDA Concentration at A450 0.56: > 1000 ng/mL
[3]
  maximal absorbance value: 0.16 A450
[4]
  maximal absorbance value: 0.08 A450
[5]
  Effective SDA Concentration at A450 0.15: > 1000 ng/mL
  binding result: no binding (tested: 1000 ng/ml (A450 0.15 not reached))
[6]
  maximal absorbance value: 0.09 A450
[7]
  Effective SDA Concentration at A450 0.15: > 1000 ng/mL
[8]
  maximal absorbance value: 0.17 A450
[9]
  Effective SDA Concentration at A450 0.3: > 1000 ng/mL

B2: SVT34L (VHH)
VHH: QVQLQESGGGLVQPGGSLRLSCAASGRTISSYAMGWFRQAPGKQREFVAAISRSGGNTYYTDSVKGRFIISRDNAKNTLYLQMNNLKPEETAVYYCAADPNLMYESKWKYRALEAWGQGTLVTVSS
[10]
  concentration giving A450 of 0.59: 0.046 µg/mL
[11]
  minimal absorbance at 450 nm: 0.103
[12]
  EC resulting in A450 0.2: 1 ng/mL
  maximal absorbance at 450 nm: 1.54
[13]
  maximal absorbance at 450 nm: 0.886
[14]
  EC resulting in A450 0.4: 1.7 ng/mL
  maximal absorbance at 450 nm: 1.29
[15]
  EC resulting in A450 0.15: 3.2 ng/mL
  maximal absorbance at 450 nm: 0.335
[16]
  EC resulting in A450 0.2: 3.5 ng/mL
  maximal absorbance at 450 nm: 0.669
[17]
  % inhibition of binding: 2%
[18]
  % inhibition of binding: 0%
[19]
  % inhibition of binding: -2%
[20]
  % inhibition of binding: -4%
[21]
  % inhibition of binding: 93%
[22]
  % inhibition of binding: 3%
[23]
  % inhibition of binding: 93%
[24]
  % inhibition of binding: 94%
[25]
  % inhibition of binding: 95%
[26]
  % inhibition of binding: 10%
[27]
  % inhibition of binding: 4%
[28]
  % inhibition of binding: 13%
[29]
  % inhibition of binding: 2%
[30]
  % inhibition of binding: 14%

B3: SVT02-GS2-SVG06M4-H6 (bispecific antibody)
chain: QVQLQQSGGGSVQAGGSLRLSCVGPQRTFSTYGMGWFRQAPGKEREFVAGINYKGDTTYYADSVKGRFTISRDNAKNTLYLQMDSLKPEDRAVYQCARKGGLGGDYRDAGQYRYWGQGTQVTVSSGGGGSGGGSEVQLVESGGALVQPGGSLRLSCAASGFPFSAYDMTWVRQAPGQGLEWVSTIHKSGGITTYADSVKGRFTISRDNAKNTLYLQMNNLESEDTAVYYCAKALRAHNSDYVGRNALGSWGQGTQVTVSSHHHHHH
[3]
  maximal absorbance value: 0.06 A450

B4: SVT15L (VHH)
VHH: QVQLQESGGGLVQTGGSLRLSCRASGRAFANYHFGWFRQAPGKDREFVASISWKGGSTYYANFALGRFTSSVDRAESSVYLQMSGLTPEDTATYYCAAHDGGDWNYHTGMDYWGKGILVTVSS
[31]
  Kd: 0.413 nM
  koff: 3.87e-05 s⁻¹
  kon: 93600 M⁻¹ s⁻¹

B5: SVT03L (VHH)
VHH: QVQLQQSGGGSVQTGDSLTLSCTASGGSLNSYFVGWFRQSGGKEREFVSVIARTGRSTSYADSVKGRFTISRDNAANTVFLTMNNLRPDDTAIYYCAAVGRPGVLHLTQSYDYWGQGTQVTVSS
[32]
  Kd: 1.4 pM
  koff: 6.64e-06 s⁻¹
  kon: 4.62e+06 M⁻¹ s⁻¹

B6: SVT06L (VHH)
VHH: QVQLQESGGGSVQAGGSLRLSCTASELSYDDYTIAWFRRAAGEGRVEDGEGVASITKSYDRAYDNKINYGHSVKGRFTISRDNAKNTVYLQMTDLLPSDTAVYYCALDITPPGGVGASLTEGFLFDYWGQGTQVTVSS
[1]
  minimal absorbance value (GT1b-TeNT inhibition): 0.27 A450
[2]
  Effective SDA Concentration at A450 0.56: 33 ng/mL
[4]
  maximal absorbance value: 1.44 A450
[5]
  Effective SDA Concentration at A450 0.15: 4.9 ng/mL
[6]
  maximal absorbance value: 0.32 A450
[7]
  Effective SDA Concentration at A450 0.15: 14 ng/mL
[31]
  Kd: 0.535 nM
  koff: 6.27e-05 s⁻¹
  kon: 117000 M⁻¹ s⁻¹
[8]
  maximal absorbance value: 0.35 A450
[9]
  Effective SDA Concentration at A450 0.3: 64 ng/mL

B7: SVT22L (VHH)
VHH: QVQLQESGGGLVQAGESLRLSCTASGISFDDYAIGWFRQAPGQQRKGVACISKADGRTDYLGSVKGRFTLSTDNTKNTVHLQMNNLKPEDTALYTCAAEYKSCGMGYKPIDYWGQGMQVTVSS
[10]
  concentration giving A450 of 0.59: 0.105 µg/mL
[11]
  minimal absorbance at 450 nm: 0.107
[12]
  EC resulting in A450 0.2: 2 ng/mL
  maximal absorbance at 450 nm: 1.59
[13]
  maximal absorbance at 450 nm: 0.981
[14]
  EC resulting in A450 0.4: 1.3 ng/mL
  maximal absorbance at 450 nm: 1.34
[15]
  EC resulting in A450 0.15: 5.4 ng/mL
  maximal absorbance at 450 nm: 0.318
[16]
  EC resulting in A450 0.2: 2.6 ng/mL
  maximal absorbance at 450 nm: 0.799
[17]
  % inhibition of binding: 4%
[18]
  % inhibition of binding: 5%
[19]
  % inhibition of binding: 6%
[20]
  % inhibition of binding: 1%
[21]
  % inhibition of binding: 95%
[22]
  % inhibition of binding: 2%
[23]
  % inhibition of binding: 92%
[24]
  % inhibition of binding: 94%
[25]
  % inhibition of binding: 93%
[26]
  % inhibition of binding: 8%
[27]
  % inhibition of binding: 0%
[28]
  % inhibition of binding: 10%
[29]
  % inhibition of binding: 3%
[30]
  % inhibition of binding: 11%
